Data as given in PMC6992768, “Loss-of-function mutations in UDP-Glucose 6-Dehydrogenase cause recessive developmental epileptic encephalopathy” (Nature Communications, 2020).

Target: the molecule itself
Experiment: SEC; analytical gel filtration of each apoprotein alone; 1x PBS with 1 mM DTT, 0.5 mL/min, Superdex gel filtration column, elution followed by A280; peaks compared with known hexamer, dimer and monomer elution times

Row | Protein | binding result | stoichiometry N
1 | UGDH ∆132 (enzyme, human, UniProt O60701 1-494, looked up, source: purified recombinant; expression not described for this mutant) MFEIKKICCIGAGYVGGPTCSVIAHMCPEIRVTVVDVNESRINAWNSPTLPIYEPGLKEVVESCRGKNLFFSTNIDDAIKEADLVFISVNTPTKTYGMGKGRAADLKYIEACARRIVQNSNGYKIVTEKSTPVRAAESIRRIFDANTKPNLNLQVLSNPEFLAEGTAIKDLKNPDRVLIGGDETPEGQRAVQALCAVYEHWVPREKILTTNTWSSELSKLAANAFLAQRISSINSISALCEATGADVEEVATAIGMDQRIGNKFLKASVGFGGSCFQKDVLNLVYLCEALNLPEVARYWQQVIDMNDYQRRRFASRIIDSLFNTVTDKKIAILGFAFKKDTGDTRESSSIYISKYLMDEGAHLHIYDPKVPREQIVVDLSHPGVSEDDQVSRLVTISKDPYEACDGAHAVVICTEWDMFKELDYERIHKKMLKPAFIFDGRRVLDGLHNELQTIGFQIETIGKKVSSKRIPYAPSGEIPKFSLQDPPNKKPKV | binds | –
2 | UGDH A44V (enzyme, human, UniProt O60701 1-494, looked up, human UDP-glucose 6-dehydrogenase (UGDH) with the patient variant A44V, made from WT-UGDH pET28a; Germline variant found in patients (families 1, 11, 13); Eluted mainly as a dimer by gel filtration; also called p.A44V; p.Ala44Val) MFEIKKICCIGAGYVGGPTCSVIAHMCPEIRVTVVDVNESRINVWNSPTLPIYEPGLKEVVESCRGKNLFFSTNIDDAIKEADLVFISVNTPTKTYGMGKGRAADLKYIEACARRIVQNSNGYKIVTEKSTVPVRAAESIRRIFDANTKPNLNLQVLSNPEFLAEGTAIKDLKNPDRVLIGGDETPEGQRAVQALCAVYEHWVPREKILTTNTWSSELSKLAANAFLAQRISSINSISALCEATGADVEEVATAIGMDQRIGNKFLKASVGFGGSCFQKDVLNLVYLCEALNLPEVARYWQQVIDMNDYQRRRFASRIIDSLFNTVTDKKIAILGFAFKKDTGDTRESSSIYISKYLMDEGAHLHIYDPKVPREQIVVDLSHPGVSEDDQVSRLVTISKDPYEACDGAHAVVICTEWDMFKELDYERIHKKMLKPAFIFDGRRVLDGLHNELQTIGFQIETIGKKVSSKRIPYAPSGEIPKFSLQDPPNKKPKV | – | 2
3 | UDP-Glucose 6-Dehydrogenase (UGDH), wild type (enzyme, human, UniProt O60701 1-494, looked up, human UDP-glucose 6-dehydrogenase (UGDH), codon-optimised E. coli expression construct WT-UGDH pET28a; also called UGDH^WT; WT-UGDH) MFEIKKICCIGAGYVGGPTCSVIAHMCPEIRVTVVDVNESRINAWNSPTLPIYEPGLKEVVESCRGKNLFFSTNIDDAIKEADLVFISVNTPTKTYGMGKGRAADLKYIEACARRIVQNSNGYKIVTEKSTVPVRAAESIRRIFDANTKPNLNLQVLSNPEFLAEGTAIKDLKNPDRVLIGGDETPEGQRAVQALCAVYEHWVPREKILTTNTWSSELSKLAANAFLAQRISSINSISALCEATGADVEEVATAIGMDQRIGNKFLKASVGFGGSCFQKDVLNLVYLCEALNLPEVARYWQQVIDMNDYQRRRFASRIIDSLFNTVTDKKIAILGFAFKKDTGDTRESSSIYISKYLMDEGAHLHIYDPKVPREQIVVDLSHPGVSEDDQVSRLVTISKDPYEACDGAHAVVICTEWDMFKELDYERIHKKMLKPAFIFDGRRVLDGLHNELQTIGFQIETIGKKVSSKRIPYAPSGEIPKFSLQDPPNKKPKV | binds | –
4 | UGDH T325D (enzyme, human, UniProt O60701 1-494, looked up, human UDP-glucose 6-dehydrogenase (UGDH) with T325D, made from WT-UGDH pET28a) MFEIKKICCIGAGYVGGPTCSVIAHMCPEIRVTVVDVNESRINAWNSPTLPIYEPGLKEVVESCRGKNLFFSTNIDDAIKEADLVFISVNTPTKTYGMGKGRAADLKYIEACARRIVQNSNGYKIVTEKSTVPVRAAESIRRIFDANTKPNLNLQVLSNPEFLAEGTAIKDLKNPDRVLIGGDETPEGQRAVQALCAVYEHWVPREKILTTNTWSSELSKLAANAFLAQRISSINSISALCEATGADVEEVATAIGMDQRIGNKFLKASVGFGGSCFQKDVLNLVYLCEALNLPEVARYWQQVIDMNDYQRRRFASRIIDSLFNDVTDKKIAILGFAFKKDTGDTRESSSIYISKYLMDEGAHLHIYDPKVPREQIVVDLSHPGVSEDDQVSRLVTISKDPYEACDGAHAVVICTEWDMFKELDYERIHKKMLKPAFIFDGRRVLDGLHNELQTIGFQIETIGKKVSSKRIPYAPSGEIPKFSLQDPPNKKPKV | binds | –
